These results are taken from paper PMC3531742 (The Journal of Biological Chemistry, 2012).

The target of experiment [1] is laminin β1 LN-LEa1–4 fragment (mouse). Kind of experiment: SEC-MALS. A general note: In gel filtration, larger molecules generally elute earlier.
Experiment [2] has the same target. The experiment is described as follows: SPR. In general terms: In SPR one partner is held on a chip, and binding of the other changes the refractive index at the surface.

B1: laminin γ1 LN-LEa1–4 fragment (domain or fragment)
chain: APLAAMDECADEGGRPQRCMPEFVNAAFNVTVVATNTCGTPPEEYCVQTGVTGVTKSCHLCDAGQQHLQHGAAFLTDYNNQADTTWWQSQTMLAGVQYPNSINLTLHLGKAFDITYVRLKFHTSRPESFAIYKRTREDGPWIPYQYYSGSCENTYSKANRGFIRTGGDEQQALCTDEFSDISPLTGGNVAFSTLEGRPSAYNFDNSPVLQEWVTATDIRVTLNRLNTFGDEVFNEPKVLKSYYYAISDFAVGGRCKCNGHASECVKNEFDKLMCNCKHNTYGVDCEKCLPFFNDRPWRRATAESASECLPCDCNGRSQECYFDPELYRSTGHGGHCTNCRDNTDGAKCERCRENFFRLGNTEACSPCHCSPVGSLSTQCDSYGRCSCKPGVMGDKCDRCQPGFHSLTEAGCRPCSCDPSGSTDECNVETGRCVCKDNVEGFNCERCKPGFFNLESSNPKGCTPAAAHHHHHH
With B1, the “stoichiometry N” value in experiment [1] is 1. In addition, the Kd in experiment [2] was found to be 22.3 ± 1.7 µM.

The term stoichiometry N denotes a count of units in the complex or per binding partner. The term Kd denotes the equilibrium constant for the complex coming apart. A higher Kd goes with weaker binding.
